Data from patent US20240392020A1 (JIANGSU HENGRUI PHARMACEUTICALS, published 2024).

target: T1, hPDL1 antigen (human, UniProt Q9NZQ7 19-239, limits assumed); experiment: ELISA
T1 construct: bought
T1 sequence (Q9NZQ7 19-239 limits assumed): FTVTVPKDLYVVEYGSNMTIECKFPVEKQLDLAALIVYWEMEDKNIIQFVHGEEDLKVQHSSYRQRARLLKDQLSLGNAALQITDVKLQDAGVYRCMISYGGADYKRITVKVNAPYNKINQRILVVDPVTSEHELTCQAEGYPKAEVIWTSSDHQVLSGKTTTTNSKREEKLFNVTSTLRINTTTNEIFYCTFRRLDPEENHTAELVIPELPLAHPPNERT
Experimental: For an antibody targeting a soluble protein, the binding activity of the antibody against the soluble protein was detected by ELISA. […] After the blocking was completed, the blocking solution was discarded; and the plate was washed 3 times with a PBST buffer (pH 7.4, PBS containing 0.1% tween-20). 100 μL of the antibody solution diluted in a gradient was added to each well, and the mixture was incubated at 37° C. for 1 h. After the incubation was completed, the plate was washed 3 times with PBST. […] The plate was washed 3 times with PBST. […] The reaction was stopped by adding 50 μL of 1 M H₂SO₄ to each well. The absorbance values at 450 nm were read on a microplate reader, the binding curves of the antibodies to an antigen were fitted with software, and the EC₅₀ values were calculated.

| Binder | EC50 |
| --- | --- |
| PL-10 (bispecific antibody, human IgG1, kappa, L234A L235A) heavy 1: not shown light 1: DIVLTQSPASLAVSPGQRATITCRASESVSIHGTHLMHWYQQKPGQPPKLLIYAASKLESGVPARFSGSGSGTDFTLTINPVEAEDTANYYCQQSFEDPLTFGQGTKLEIKGGGGSGIPPKIECLPIDISIDEGKVLTVASCFTGEPTPEVTWSTGGRKIHSQEQGRFHIENTDDSTTLTIKDVQKQDGGLYTLTLRNEFGSDSATVNIHIRSI heavy 2: not shown light 2: not shown | 0.6 nM |
| PL-11 (bispecific antibody, human IgG1, kappa, L234A L235A) heavy 1: not shown light 1: DIVLTQSPASLAVSPGQRATITCRASESVSIHGTHLMHWYQQKPGQPPKLLIYAASKLESGVPARFSGSGSGTDFTLTINPVEAEDTANYYCQQSFEDPLTFGQGTKLEIKRTVASGIPPKIECLPIDISIDEGKVLTVASAFTGEPTPEVTWSTGGRKIHSQEQGRFHIENTDDSTTLTIKDVQKQDGGLYTLTLRNEFGSDSATVNIHIRSI heavy 2: not shown light 2: not shown | 0.6 nM |
| PL-12 (bispecific antibody, human IgG1, kappa, L234A L235A) heavy 1: not shown light 1: DIVLTQSPASLAVSPGQRATITCRASESVSIHGTHLMHWYQQKPGQPPKLLIYAASKLESGVPARFSGSGSGTDFTLTINPVEAEDTANYYCQQSFEDPLTFGQGTKLEIKRTVASGIPPKIECLPIDISIDEGKCLTVASAFTGEPTPEVTWSTGGRKIHSQEQGRFHIENTDDSTTLTIKDVQKQDGGLYTLTLRNEFGSDSATVNIHIRSI heavy 2: not shown light 2: not shown | 0.5 nM |
| PL-13 (bispecific antibody, human IgG1, kappa, L234A L235A) heavy 1: not shown light 1: DIVLTQSPASLAVSPGQRATITCRASESVSIHGTHLMHWYQQKPGQPPKLLIYAASKLESGVPARFSGSGSGTDFTLTINPVEAEDTANYYCQQSFEDPLTFGQGTKLEIKRTVASGIPPKIECLPIDISIDEGKVLTVASCFTGEPTPEVTWSTGGRKIHSQEQGRFHIENTDDSTTLTIKDVQKQDGGLYTLTLRNEFGSDSATVNIHIRSI heavy 2: not shown light 2: not shown | 0.5 nM |
| PL-14 (bispecific antibody, human IgG1, kappa, L234A L235A) heavy 1: not shown light 1: DIVLTQSPASLAVSPGQRATITCRASESVSIHGTHLMHWYQQKPGQPPKLLIYAASKLESGVPARFSGSGSGTDFTLTINPVEAEDTANYYCQQSFEDPLTFGQGTKLEIKRTVASGIPPKIECLPIDISIDEGKVLTVASAFTGEPTPEVTWSTGGRKIHSQEQGRFHIENTDDSTTLTIKDVQKQDGGLYTLTLRNEFGSDSATVNIHIRSI heavy 2: not shown light 2: not shown | 1.3 nM |
| PL-15 (bispecific antibody, human IgG1, kappa, L234A L235A) heavy 1: not shown light 1: DIVLTQSPASLAVSPGQRATITCRASESVSIHGTHLMHWYQQKPGQPPKLLIYAASKLESGVPARFSGSGSGTDFTLTINPVEAEDTANYYCQQSFEDPLTFGQGTKLEIKRTVASGIPPKIECLPIDISIDEGKCLTVASAFTGEPTPEVTWSTGGRKIHSQEQGRFHIENTDDSTTLTIKDVQKQDGGLYTLTLRNEFGSDSATVNIHIRSI heavy 2: not shown light 2: not shown | 1.4 nM |
| PL-17 (bispecific antibody, human IgG1, kappa, L234A L235A) heavy 1: not shown light 1: DIVLTQSPASLAVSPGQRATITCRASESVSIHGTHLMHWYQQKPGQPPKLLIYAASKLESGVPARFSGSGSGTDFTLTINPVEAEDTANYYCQQSFEDPLTFGQGTKLEIKRTVASGIPPKIECLPIDISIDEGKVLTVASAFTGEPTPEVTWSTGGRKIHSQEQGRFHIENTDDSTTLTIKDVQKQDGGLYTLTLRNEFGSDSATVNIHIRSI heavy 2: not shown light 2: not shown | 1.4 nM |
| PL-18 (bispecific antibody, human IgG1, kappa, L234A L235A) heavy 1: not shown light 1: DIVLTQSPASLAVSPGQRATITCRASESVSIHGTHLMHWYQQKPGQPPKLLIYAASKLESGVPARFSGSGSGTDFTLTINPVEAEDTANYYCQQSFEDPLTFGQGTKLEIKRTVASGIPPKIECLPIDISIDEGKCLTVASAFTGEPTPEVTWSTGGRKIHSQEQGRFHIENTDDSTTLTIKDVQKQDGGLYTLTLRNEFGSDSATVNIHIRSI heavy 2: not shown light 2: not shown | 1.6 nM |
| PL-19 (bispecific antibody, human IgG1, kappa, L234A L235A) heavy 1: not shown light 1: DIVLTQSPASLAVSPGQRATITCRASESVSIHGTHLMHWYQQKPGQPPKLLIYAASKLESGVPARFSGSGSGTDFTLTINPVEAEDTANYYCQQSFEDPLTFGQGTKLEIKRTVASGIPPKIECLPIDISIDEGKVLTVASCFTGEPTPEVTWSTGGRKIHSQEQGRFHIENTDDSTTLTIKDVQKQDGGLYTLTLRNEFGSDSATVNIHIRSI heavy 2: not shown light 2: not shown | 1.6 nM |
